We go through three substances from paper PMC10275869.

The stoichiometry N is the number of molecules, sites or subunits per partner or assembly.

Common to all, as to experiment: SEC; 100-200 μg of protein on a Superose 6 Increase 10/300GL column
The target in test [1] is unstabilised LayV F (ectodomain with C-Tag, without clamp2) (Langya virus).
Test [2] addresses unstabilised MojV F (ectodomain with C-Tag, without clamp2) (Mòjiāng virus).
The target in test [3] is LayV F clamp2 (prefusion Langya virus fusion glycoprotein ectodomain stabilised with the clamp2 molecular clamp) (Langya virus).

For “unstabilised LayV F (ectodomain with C-Tag, without clamp2) (domain or fragment)”, in test [1], the stoichiometry N was determined as 3.

For the substance “unstabilised MojV F (ectodomain with C-Tag, without clamp2) (domain or fragment)”, the stoichiometry N in test [2] stood at 3.

“LayV F clamp2 (prefusion Langya virus fusion glycoprotein ectodomain stabilised with the clamp2 molecular clamp) (domain or fragment)” showed a stoichiometry N in test [3] of 3.
